Test results published in paper PMC6435160, “Initiation-specific alleles of the Cdc45 helicase-activating protein” (PLoS ONE, 2019).
Substitutions are numbered along the chain they refer to.

B1: Cdc45-124 (DAH->AAA) (natural protein, S. cerevisiae, UniProt Q08032 1-650, looked up)
chain: MYYGISQFSEAYNKILRNSSSHSSCQLVIFVSCLNIDALCATKMLSLLFKKQLVQSQIVPIFGYSELRRHYSQLDDNINSLLLVGFGGVIDLEAFLEIDPQEYVIDTDEKSGEQSFRRDIYVLAAARPWNLDNIFGSQIIQCFDDGTVDDTLGEQKEAYYKLLELDEESGDDELSGDENDNNGGDDEATDADEVTDEDEEDEDETISNKRGNSSIGPNDLSKRKQRKKQIHEYEGVLEEYYSQGTTVVNSISAQIYSLLSAIGETNLSNLWLNILGTTSLDIAYAQVYNRLYPLLQDEVKRLTPSSRNSVKTPDTLTLNIQPDYYLFLLRHSSLYDSFYYSNYVNAKLSLWNENGKKRLHKMFARMGIPLSTAQETWLYMDHSIKRELGIIFDKNLDRYGLQDIIRDGFVRTLGYRGSISASEFVEALTALLEVGNSTDKDSVKINNDNNDDTDGEEEEDNSAQKLTNLRKRWVSNFWLSWDALDDRKVELLNRGIQLAQDLQRAIFNTGVAILEKKLIKHLRIYRLCVLQDGPDLDLYRNPLTLLRLGNWLIECCAESEDKQLLPMVLASIDENTDTYLVAGLTPRYPRGLDTIHTKKPILNNFSMAFQQITAETDAKVRIDNFESSIIEIRREDLSPFLEKLTLSGLL
notes: Cdc45, Saccharomyces cerevisiae, clustered alanine mutant; mutants are numbered by the position of the first mutated amino acid; also called Cdc45-ts
B2: Cdc45-238 (EEY->AAA) (natural protein, S. cerevisiae, UniProt Q08032 1-650, looked up)
chain: B1 chain with A124D, A126H, E238A, E239A, Y240A
notes: as for B1
B3: Cdc45-485 (DDRK->AAAA) (natural protein, S. cerevisiae, UniProt Q08032 1-650, looked up)
chain: B1 chain with A124D, A126H, D485A, D486A, R487A, K488A
notes: as for B1
B4: GINS complex (Sld5, Psf1, Psf2, Psf3) (complex, S. cerevisiae)
chain 1: MDINIDDILAELDKETTAVDSTKITQGSSSTTHRDANTIVGSSLDLNDKTQIYVSPQQDFSDLMKSWKNERCSPELLPYPHQLMKRLLNRISMQSQLIENISMGFLDMQNASNANPPMPNESKLPLLCMETELERLKFVIRSYIRCRLSKIDKFSLYLRQLNEDENSLISLTDLLSKDEIKYHDTHSLIWLKLVNDSILKYMPEELQAINDTEGSVNMIDEPDWNKFVFIHVNGPPDGKWNEDPLLQENEFGKPCYTVTIPDLKEEVELTIGSIYVMRYEVIRDLLRDDKVALI
chain 2: MYGDLGNKLVLEAKRTKQLYARSNQDVNLPMYHEDIIRNILKEVSNLRKNTEYLKEQQQLGMLDDKVAKCQYFVTLLCMERNKRCLLAYQRLRTDILDSMAWNNNGLDLMSSITFSQQDTNNLSHQEQEYLKEYCDLITDLKSGDLVDIDLSGSLVPPSDVFIDVRVLKDAGEIQTEYGVFNLIKDSQFFVRQSDVERLIQQGYLQKI
chain 3: MSLPAHLQQTFSPEEIQFIVENEPIKIFPRITTRQKIRGDDRGTGNHTRWQLITTDDKALNNMVAMRSTEVVLWIALLLKQQSKCSIVAPQWLTTKELDRKIQYEKTHPDRFSELPWNWLVLARILFNKAKDDFHDPIHELRGKIQDLREIRQIKVLKGLKYLNESHLQLDNLSLLEINELRPFITEIMDKLREIHTASLTAGTENDEEEFNI
chain 4: MGYYDIDDVLADGTEFPCKFQYDIPGLGYLENNPGRPITKNTKLSLPLWLARILAIVGGDEALVDEEPVPFVELLPPDMFSTKVMNAIKTDPVALDLHSINSHFFSLAIKWIMLFSEKELANVVSELLLQRAQELNHHASSLSIDLNADSTGKNSANTNIATSTFLLKLEEMEKEIYKKSHESYKDTKRWMFKK
notes: Sld5 subunit of GINS, S. cerevisiae; Psf1 subunit of GINS, S. cerevisiae; Psf2 subunit of GINS, S. cerevisiae; expressed as Psf2-3C-6xHis-Flag, tag removed with HRV 3C protease; Psf3 subunit of GINS, S. cerevisiae; not shown: 6xHis, C-terminal, cleaved; Flag, C-terminal, cleaved; copies: + + +

Tests used:
[1] = target: T1, Mcm2-7 replicative DNA helicase, loaded on origin DNA and phosphorylated by DDK (S. cerevisiae, UniProt P29469 1-868; P24279 1-971; P30665 1-933; P29496 1-775; P53091 1-1017; P38132 …); assay: pull-down; CMG formation assay: Mcm2-7 loaded on bead-attached origin DNA (pUC19-ARS1) and treated with DDK; S-CDK, Sld2, Dpb11, Pol ε, GINS, Mcm10, Sld3/7 and 50 nM Cdc45 added, no Pol α-primase; 30 min at 25°C; beads washed with buffer H + 0.3 M KCl, 0.02% NP-40 (salt-stable complexes); proteins released with DNase and detected by immunoblot; amounts relative to wild type; conditions: both partners purified
T1 construct: Mcm2 subunit of Mcm2-7, S. cerevisiae; Mcm3 subunit of Mcm2-7, S. cerevisiae; Mcm4 subunit of Mcm2-7, S. cerevisiae; Mcm5 subunit of Mcm2-7, S. cerevisiae; Mcm6 subunit of Mcm2-7, S. cerevisiae; Mcm7 subunit of Mcm2-7, S. cerevisiae; In the assays the complex was loaded on origin DNA and treated with DDK; also called Mcm2-7 complex; loaded Mcm2-7; source: Mcm2-7/Cdt1 purified as previously …

[2] = target: T1, Mcm2-7 replicative DNA helicase, loaded …; assay: pull-down; reconstituted DNA replication assay: Mcm2-7 loaded on bead-attached origin DNA (pARS1-Nco) and treated with DDK; S-CDK, Sld2, Dpb11, Pol α-primase, Pol ε, RPA, GINS, Mcm10, Sld3/7 and 130 nM Cdc45 added; 1 h at 25°C; beads washed with buffer H + 0.3 M K-Glut, 0.02% NP-40; proteins released with DNase and detected by immunoblot; amounts relative to wild type; conditions: both partners purified

Binder | stable CMG complexes, percent of wild-type Cdc45 [1] | percent of wild-type Cdc45 association [2] | binding result [2]
B1 | 67 % of wild-type Cdc45 |  | 
B2 | 55 % of wild-type Cdc45 | 20 % of wild-type Cdc45 association | 
B3 | 43 % of wild-type Cdc45 | 27 % of wild-type Cdc45 association | 
B4 |  |  | binds
